Source: US20120009162A1 (published 2012)

Target: T1, Aurora-A kinase (Aur-A) peptide on HLA-A*02:01 (human)
T1 peptide: YLILEYAPL
Assay: multimer staining

- binding result: recognises
B1: TCR of the Aur-A-specific CTL clone AUR-1 (SEQ ID NOs 1 and 2) (TCR, V domains shown)
Valpha: AQSVAQPEDQVNVAEGNPLTVKCTYSVSGNPYLFWYVQYPNRGLQFLLKYITGDNLVKGSYGFEAEFNKSQTSFHLKKPSALVSDSALYFCAVRDSNSNDYKLSFGAGTTVTVRA
Vbeta: DAGITQSPRHKVTETGTPVTLRCHQTENHRYMYWYRQDPGHGLRLIHYSYGVKDTDKGEVSDGYSVSRSKTEDFLLTLESATSSQTSVYFCAISESSFAQPMNTEAFFGQGTRLTVV
